Data set [1] has as its target T1, ShPPase (Family II inorganic pyrophosphatase from Shewanella sp. AS-11) (Shewanella sp. AS-11, UniProt L8AXY8).
T1 construct: gene ppia; recombinant from pET16b in E. coli BL21(DE3); purified as previously described
T1 sequence (L8AXY8 2-308): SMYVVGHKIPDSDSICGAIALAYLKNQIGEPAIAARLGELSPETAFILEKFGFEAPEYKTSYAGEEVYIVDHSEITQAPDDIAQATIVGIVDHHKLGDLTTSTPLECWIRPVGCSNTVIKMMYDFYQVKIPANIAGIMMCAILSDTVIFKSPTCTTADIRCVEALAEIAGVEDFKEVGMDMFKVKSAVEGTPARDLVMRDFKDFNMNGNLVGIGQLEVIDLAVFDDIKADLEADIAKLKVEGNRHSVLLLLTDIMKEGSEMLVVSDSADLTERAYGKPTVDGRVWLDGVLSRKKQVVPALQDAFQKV
In words: Zn K-edge XANES / EXAFS. In kind it is binding. As to conditions: Zn2+-ShPPase 1.1 mM, 0.1 M PNP, 0.1 M MgCl2, pH 7.5; active site, trinuclear metal center.

Substrate in data set [2]: O=P(O)(O)OP(=O)(O)O
Nature of the data set: molybdenum blue phosphate release. In kind it is biochemical, Shewanella sp. AS-11. As to conditions: Zn2+-activated enzyme, 5 mM MgCl2, 50 mM KCl, 100 mM Tris-HCl pH 7.5, 25 °C. From the text:
molybdenum blue phosphate release on ShPPase (Family II inorganic pyrophosphatase from Shewanella sp. AS-11)

[3] abbreviates: primers for D14N and D14A appear exchanged.

We go through 4 molecules from publication PMC13219714, “μ₃-Oxo nucleophile formation enables efficient SN2 hydrolysis at the trinuclear metal center in inorganic pyrophosphatase” (Communications Chemistry, 2026).

A word on the Km: it is the substrate concentration at which the rate is half of its maximum. Broadly, the kcat is the maximal rate divided by the concentration of active sites. By kcat/Km is commonly meant the turnover number divided by the Michaelis constant.

As for `O=P(O)(O)NP(=O)(O)O` [PNP, imidodiphosphate], in data set [1], the “Zn K-edge XANES / EXAFS” value is reported as “Zn²⁺ ions are predominantly five-coordinate in the substrate-free form, but transition to six-coordinate upon PNP binding”.

B1: ShPPase (Family II inorganic pyrophosphatase from Shewanella sp. AS-11) (Shewanella sp. AS-11) (protein)
chain: SMYVVGHKIPDSDSICGAIALAYLKNQIGEPAIAARLGELSPETAFILEKFGFEAPEYKTSYAGEEVYIVDHSEITQAPDDIAQATIVGIVDHHKLGDLTTSTPLECWIRPVGCSNTVIKMMYDFYQVKIPANIAGIMMCAILSDTVIFKSPTCTTADIRCVEALAEIAGVEDFKEVGMDMFKVKSAVEGTPARDLVMRDFKDFNMNGNLVGIGQLEVIDLAVFDDIKADLEADIAKLKVEGNRHSVLLLLTDIMKEGSEMLVVSDSADLTERAYGKPTVDGRVWLDGVLSRKKQVVPALQDAFQKV
notes: recombinant from pET16b in E. coli BL21(DE3); purified as previously described
For the molecule B1, in data set [2], the Michaelis-Menten constant (Km) came out at 79 ± 18 µM, the catalytic constant (kcat) came to 99.8 ± 5.5 s⁻¹ and the specificity constant (kcat/Km) stood at 1.26e+06 M⁻¹ s⁻¹.

B2: ShPPase (Family II inorganic pyrophosphatase from Shewanella sp. AS-11) (Shewanella sp. AS-11; D14A) (protein)
chain: SMYVVGHKIPDSASICGAIALAYLKNQIGEPAIAARLGELSPETAFILEKFGFEAPEYKTSYAGEEVYIVDHSEITQAPDDIAQATIVGIVDHHKLGDLTTSTPLECWIRPVGCSNTVIKMMYDFYQVKIPANIAGIMMCAILSDTVIFKSPTCTTADIRCVEALAEIAGVEDFKEVGMDMFKVKSAVEGTPARDLVMRDFKDFNMNGNLVGIGQLEVIDLAVFDDIKADLEADIAKLKVEGNRHSVLLLLTDIMKEGSEMLVVSDSADLTERAYGKPTVDGRVWLDGVLSRKKQVVPALQDAFQKV
notes: as for B1
Regarding B2, in data set [2], the Km was 179 ± 37 µM, the kcat worked out at 0.019 ± 0.001 s⁻¹ and the kcat/Km turned out to be 110 M⁻¹ s⁻¹.

B3: ShPPase (Family II inorganic pyrophosphatase from Shewanella sp. AS-11) (Shewanella sp. AS-11; D14N) (protein)
chain: SMYVVGHKIPDSNSICGAIALAYLKNQIGEPAIAARLGELSPETAFILEKFGFEAPEYKTSYAGEEVYIVDHSEITQAPDDIAQATIVGIVDHHKLGDLTTSTPLECWIRPVGCSNTVIKMMYDFYQVKIPANIAGIMMCAILSDTVIFKSPTCTTADIRCVEALAEIAGVEDFKEVGMDMFKVKSAVEGTPARDLVMRDFKDFNMNGNLVGIGQLEVIDLAVFDDIKADLEADIAKLKVEGNRHSVLLLLTDIMKEGSEMLVVSDSADLTERAYGKPTVDGRVWLDGVLSRKKQVVPALQDAFQKV
notes: as for B1
Consider B3, for which, in data set [2] (setting [3]), the Km is listed as 100 ± 20 µM, the turnover number (kcat) came to 0.034 ± 0.002 s⁻¹ and the catalytic efficiency (kcat/Km) stood at 340 M⁻¹ s⁻¹.
